# B1: Serine/arginine-rich splicing factor 3 (Homo sapiens), P84103 (parent)
# chain: MHRDSCPLDCKVYVGNLGNNGNKTELERAFGYYGPLRSVWVARNPPGFAFVEFEDPRDAADAVRELDGRTLCGCRVRVELSNGEKRSRNRGPPPSWGRRPRDDYRRRSPPPRRRSPRRRSFSRSRSRSLSRDRRRERSLSRERNHKPSRSFSRSRSRSRSNERK
# partner: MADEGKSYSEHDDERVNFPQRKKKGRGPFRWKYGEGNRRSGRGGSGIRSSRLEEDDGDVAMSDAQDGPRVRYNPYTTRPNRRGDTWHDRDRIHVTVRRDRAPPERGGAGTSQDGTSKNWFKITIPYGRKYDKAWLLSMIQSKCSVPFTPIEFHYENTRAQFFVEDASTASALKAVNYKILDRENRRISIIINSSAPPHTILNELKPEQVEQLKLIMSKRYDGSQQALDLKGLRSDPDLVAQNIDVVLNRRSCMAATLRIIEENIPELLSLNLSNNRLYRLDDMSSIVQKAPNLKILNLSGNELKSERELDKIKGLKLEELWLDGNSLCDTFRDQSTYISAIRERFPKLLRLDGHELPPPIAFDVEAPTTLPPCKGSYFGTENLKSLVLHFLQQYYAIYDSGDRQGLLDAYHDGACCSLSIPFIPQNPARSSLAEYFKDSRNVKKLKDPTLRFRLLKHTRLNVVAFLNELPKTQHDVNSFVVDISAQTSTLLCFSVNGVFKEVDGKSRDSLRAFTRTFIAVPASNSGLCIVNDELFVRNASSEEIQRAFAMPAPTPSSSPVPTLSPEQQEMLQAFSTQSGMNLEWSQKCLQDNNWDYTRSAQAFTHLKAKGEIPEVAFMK
# B2: Serine/arginine-rich splicing factor 7 (Homo sapiens), Q16629 (parent)
# chain: MSRYGRYGGETKVYVGNLGTGAGKGELERAFSYYGPLRTVWIARNPPGFAFVEFEDPRDAEDAVRGLDGKVICGSRVRVELSTGMPRRSRFDRPPARRPFDPNDRCYECGEKGHYAYDCHRYSRRRRSRSRSRSHSRSRGRRYSRSRSRSRGRRSRSASPRRSRSISLRRSRSASLRRSRSGSIKGSRYFQSPSRSRSRSRSISRPRSSRSKSRSPSPKRSRSPSGSPRRSASPERMD
# partner: B1 partner
# Variants of: B1
# Conditions: with nxf1_human NXF1, Q9UBU9
row,Variant,effect of a mutation on the interaction
1,MHRDSCPLDCKVYVGNLGNNGNKTELERAFGYYGPLRSVWVARNPPGFAFVEFEDPRDAADAVRELDGRTLCGCRVRVELSNGEKESRNRGPPPSWGRRPRDDYRRRSPPPRRRSPRRRSFSRSRSRSLSRDRRRERSLSRERNHKPSRSFSRSRSRSRSNERK [R86E],disrupting interaction

# Variants of: B1
# Conditions: with nxf1_human NXF1, Q9UBU9
# Remark: another data set of the same source
row,Variant,effect of a mutation on the interaction
1,MHRDSCPLDCKVYVGNLGNNGNKTELERAFGYYGPLRSVWVARNPPGFAFVEFEDPRDAADAVRELDGRTLCGCRVRVELSNGEKRSENRGPPPSWGRRPRDDYRRRSPPPRRRSPRRRSFSRSRSRSLSRDRRRERSLSRERNHKPSRSFSRSRSRSRSNERK [R88E],disrupting interaction

# Variants of: B1
# Conditions: with nxf1_human NXF1, Q9UBU9
# Remark: another data set of the same source
row,Variant,effect of a mutation on the interaction
1,MHRDSCPLDCKVYVGNLGNNGNKTELERAFGYYGPLRSVWVARNPPGFAFVEFEDPRDAADAVRELDGRTLCGCRVRVELSNGEKRSRNEGPPPSWGRRPRDDYRRRSPPPRRRSPRRRSFSRSRSRSLSRDRRRERSLSRERNHKPSRSFSRSRSRSRSNERK [R90E],disrupting interaction

# Variants of: B2
# Conditions: with nxf1_human NXF1, Q9UBU9
row,Variant,effect of a mutation on the interaction
1,MSRYGRYGGETKVYVGNLGTGAGKGELERAFSYYGPLRTVWIARNPPGFAFVEFEDPRDAEDAVRGLDGKVICGSRVRVELSTGMPERSRFDRPPARRPFDPNDRCYECGEKGHYAYDCHRYSRRRRSRSRSRSHSRSRGRRYSRSRSRSRGRRSRSASPRRSRSISLRRSRSASLRRSRSGSIKGSRYFQSPSRSRSRSRSISRPRSSRSKSRSPSPKRSRSPSGSPRRSASPERMD [R87E],disrupting interaction
2,MSRYGRYGGETKVYVGNLGTGAGKGELERAFSYYGPLRTVWIARNPPGFAFVEFEDPRDAEDAVRGLDGKVICGSRVRVELSTGMPRESRFDRPPARRPFDPNDRCYECGEKGHYAYDCHRYSRRRRSRSRSRSHSRSRGRRYSRSRSRSRGRRSRSASPRRSRSISLRRSRSASLRRSRSGSIKGSRYFQSPSRSRSRSRSISRPRSSRSKSRSPSPKRSRSPSGSPRRSASPERMD [R88E],disrupting interaction

# Variants of: B2
# Conditions: with nxf1_human NXF1, Q9UBU9
# Remark: another data set of the same source
row,Variant,effect of a mutation on the interaction
1,MSRYGRYGGETKVYVGNLGTGAGKGELERAFSYYGPLRTVWIARNPPGFAFVEFEDPRDAEDAVRGLDGKVICGSRVRVELSTGMPRRSRFDRPPAERPFDPNDRCYECGEKGHYAYDCHRYSRRRRSRSRSRSHSRSRGRRYSRSRSRSRGRRSRSASPRRSRSISLRRSRSASLRRSRSGSIKGSRYFQSPSRSRSRSRSISRPRSSRSKSRSPSPKRSRSPSGSPRRSASPERMD [R97E],disrupting interaction
2,MSRYGRYGGETKVYVGNLGTGAGKGELERAFSYYGPLRTVWIARNPPGFAFVEFEDPRDAEDAVRGLDGKVICGSRVRVELSTGMPRRSRFDRPPAREPFDPNDRCYECGEKGHYAYDCHRYSRRRRSRSRSRSHSRSRGRRYSRSRSRSRGRRSRSASPRRSRSISLRRSRSASLRRSRSGSIKGSRYFQSPSRSRSRSRSISRPRSSRSKSRSPSPKRSRSPSGSPRRSASPERMD [R98E],disrupting interaction
